According to patent US20210388087A1 (Chugai, published 2021):
Where a chain is given by its changes, count along the chain named. Names and notes keep the numbering of the source.

T1: Human CD3eg linker (human)
T1 construct: Single-chain construct; also called recombinant human CD3
T1 chain: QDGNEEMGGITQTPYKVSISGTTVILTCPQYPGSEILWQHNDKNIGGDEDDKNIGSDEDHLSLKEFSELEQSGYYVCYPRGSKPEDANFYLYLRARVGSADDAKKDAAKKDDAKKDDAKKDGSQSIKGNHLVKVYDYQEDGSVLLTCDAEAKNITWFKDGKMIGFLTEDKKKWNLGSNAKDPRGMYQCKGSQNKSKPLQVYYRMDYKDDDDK

B1: H183/L072 VL Q24F (antibody, name in Kabat numbering, V domains shown)
VH: QVQLVESGGGLVQPGRSLRLSCAASGFTFSNAWMHWVRQAPGKGLEWVAQIKDKGNAYAAYYAPSVKGRFTISRDDSKNSIYLQMNSLKTEDTAVYYCHYVHYASASTVLPAFGVDAWGQGTTVTVSS
VL: DIVMTQSPLSLPVTPGEPASISCFASQELVHMNRNTYLHWYQQKPGQAPRLLIYKVSNRFPGVPDRFSGSGSGTDFTLKISRVEAEDVGVYYCAQGTSVPFTFGQGTKLEIK
B2: H183/L072 VL Q24G (antibody, name in Kabat numbering, V domains shown)
VH: B1 VH
VL: B1 VL with F24G
B3: H183/L072 VL Q24H (antibody, name in Kabat numbering, V domains shown)
VH: B1 VH
VL: B1 VL with F24H
B4: H183/L072 VL Q24I (antibody, name in Kabat numbering, V domains shown)
VH: B1 VH
VL: B1 VL with F24I
B5: H183/L072 VL Q24K (antibody, name in Kabat numbering, V domains shown)
VH: B1 VH
VL: B1 VL with F24K
B6: H183/L072 VL Q24L (antibody, name in Kabat numbering, V domains shown)
VH: B1 VH
VL: B1 VL with F24L
B7: H183/L072 VL Q24M (antibody, name in Kabat numbering, V domains shown)
VH: B1 VH
VL: B1 VL with F24M
B8: H183/L072 VL Q24N (antibody, name in Kabat numbering, V domains shown)
VH: B1 VH
VL: B1 VL with F24N
B9: H183/L072 VL Q24R (antibody, name in Kabat numbering, V domains shown)
VH: B1 VH
VL: B1 VL with F24R
B10: H183/L072 VL Q24S (antibody, name in Kabat numbering, V domains shown)
VH: B1 VH
VL: B1 VL with F24S
B11: H183/L072 VL Q24T (antibody, name in Kabat numbering, V domains shown)
VH: B1 VH
VL: B1 VL with F24T
B12: H183/L072 VL Q24V (antibody, name in Kabat numbering, V domains shown)
VH: B1 VH
VL: B1 VL with F24V
B13: H183/L072 VL Q24W (antibody, name in Kabat numbering, V domains shown)
VH: B1 VH
VL: B1 VL with F24W
B14: H183/L072 VL Q24Y (antibody, name in Kabat numbering, V domains shown)
VH: B1 VH
VL: B1 VL with F24Y
B15: H183/L072 VL Q27A (antibody, name in Kabat numbering, V domains shown)
VH: B1 VH
VL: B1 VL with F24Q, Q27A
B16: H183/L072 VL Q27D (antibody, name in Kabat numbering, V domains shown)
VH: B1 VH
VL: B1 VL with F24Q, Q27D
B17: H183/L072 VL Q27E (antibody, name in Kabat numbering, V domains shown)
VH: B1 VH
VL: B1 VL with F24Q, Q27E
B18: H183/L072 VL Q27F (antibody, name in Kabat numbering, V domains shown)
VH: B1 VH
VL: B1 VL with F24Q, Q27F
B19: H183/L072 VL Q27G (antibody, name in Kabat numbering, V domains shown)
VH: B1 VH
VL: B1 VL with F24Q, Q27G
B20: H183/L072 VL Q27H (antibody, name in Kabat numbering, V domains shown)
VH: B1 VH
VL: B1 VL with F24Q, Q27H
B21: H183/L072 VL Q27I (antibody, name in Kabat numbering, V domains shown)
VH: B1 VH
VL: B1 VL with F24Q, Q27I
B22: H183/L072 VL Q27K (antibody, name in Kabat numbering, V domains shown)
VH: B1 VH
VL: B1 VL with F24Q, Q27K
B23: H183/L072 VL Q27L (antibody, name in Kabat numbering, V domains shown)
VH: B1 VH
VL: B1 VL with F24Q, Q27L
B24: H183/L072 VL Q27M (antibody, name in Kabat numbering, V domains shown)
VH: B1 VH
VL: B1 VL with F24Q, Q27M
B25: H183/L072 VL Q27N (antibody, name in Kabat numbering, V domains shown)
VH: B1 VH
VL: B1 VL with F24Q, Q27N
B26: H183/L072 VL Q27R (antibody, name in Kabat numbering, V domains shown)
VH: B1 VH
VL: B1 VL with F24Q, Q27R
B27: H183/L072 VL Q27S (antibody, name in Kabat numbering, V domains shown)
VH: B1 VH
VL: B1 VL with F24Q, Q27S
B28: H183/L072 VL Q27T (antibody, name in Kabat numbering, V domains shown)
VH: B1 VH
VL: B1 VL with F24Q, Q27T
B29: H183/L072 VL Q27V (antibody, name in Kabat numbering, V domains shown)
VH: B1 VH
VL: B1 VL with F24Q, Q27V
B30: H183/L072 VL Q27W (antibody, name in Kabat numbering, V domains shown)
VH: B1 VH
VL: B1 VL with F24Q, Q27W
B31: H183/L072 VL Q27Y (antibody, name in Kabat numbering, V domains shown)
VH: B1 VH
VL: B1 VL with F24Q, Q27Y
B32: H183/L072 VL Q90D (antibody, name in Kabat numbering, V domains shown)
VH: B1 VH
VL: B1 VL with F24Q, Q95D
B33: H183/L072 VL Q90E (antibody, name in Kabat numbering, V domains shown)
VH: B1 VH
VL: B1 VL with F24Q, Q95E
B34: H183/L072 VL Q90H (antibody, name in Kabat numbering, V domains shown)
VH: B1 VH
VL: B1 VL with F24Q, Q95H
B35: H183/L072 VL Q90K (antibody, name in Kabat numbering, V domains shown)
VH: B1 VH
VL: B1 VL with F24Q, Q95K
B36: H183/L072 VL Q90S (antibody, name in Kabat numbering, V domains shown)
VH: B1 VH
VL: B1 VL with F24Q, Q95S
B37: H183/L072 VL Q90T (antibody, name in Kabat numbering, V domains shown)
VH: B1 VH
VL: B1 VL with F24Q, Q95T
B38: H183/L072 VL R29A (antibody, name in Kabat numbering, V domains shown)
VH: B1 VH
VL: B1 VL with F24Q, R34A
B39: H183/L072 VL R29D (antibody, name in Kabat numbering, V domains shown)
VH: B1 VH
VL: B1 VL with F24Q, R34D
B40: H183/L072 VL R29E (antibody, name in Kabat numbering, V domains shown)
VH: B1 VH
VL: B1 VL with F24Q, R34E
B41: H183/L072 VL R29F (antibody, name in Kabat numbering, V domains shown)
VH: B1 VH
VL: B1 VL with F24Q, R34F
B42: H183/L072 VL R29G (antibody, name in Kabat numbering, V domains shown)
VH: B1 VH
VL: B1 VL with F24Q, R34G
B43: H183/L072 VL R29H (antibody, name in Kabat numbering, V domains shown)
VH: B1 VH
VL: B1 VL with F24Q, R34H
B44: H183/L072 VL R29I (antibody, name in Kabat numbering, V domains shown)
VH: B1 VH
VL: B1 VL with F24Q, R34I
B45: H183/L072 VL R29K (antibody, name in Kabat numbering, V domains shown)
VH: B1 VH
VL: B1 VL with F24Q, R34K

Target: T1, Human CD3eg linker
Assay: SPR; fold vs parent H183/L072

First: B1
Second: B2
The “fold change of affinity” value of the first is lower: 0.9 fold for the first, 1.2 fold for the second.

Compared with B3, B4 is higher in “fold change of affinity” value: 1.1 fold for the first, 1.2 fold for the second.

Compared with B5, B6 is higher in “fold change of affinity” value: 1 fold for the first, 1.2 fold for the second.

B7 and B8 are the same in “fold change of affinity” value: 1.1 fold for the first, 1.1 fold for the second.

First: B9
Second: B10
The “fold change of affinity” value of the first is lower: 1 fold for the first, 1.1 fold for the second.

Compared with B11, B12 is higher in “fold change of affinity” value: 1.1 fold for the first, 1.2 fold for the second.

First: B13
Second: B14
The “fold change of affinity” value of the first is higher: 1.1 fold for the first, 1 fold for the second.

First: B15
Second: B16
The “fold change of affinity” value of the first is higher: 1.2 fold for the first, 1.1 fold for the second.

Going from B17 to B18, the “fold change of affinity” value falls from 1.1 fold to 0.9 fold.

Compared with B19, B20 is higher in “fold change of affinity” value: 1 fold for the first, 1.2 fold for the second.

B21 and B22 are the same in “fold change of affinity” value: 0.8 fold for the first, 0.8 fold for the second.

Going from B23 to B24, the “fold change of affinity” value rises from 1 fold to 1.2 fold.

B25 and B26 are the same in “fold change of affinity” value: 1 fold for the first, 1 fold for the second.

Compared with B27, B28 is lower in “fold change of affinity” value: 1.1 fold for the first, 1 fold for the second.

First: B29
Second: B30
The “fold change of affinity” value of the first is higher: 0.9 fold for the first, 0.7 fold for the second.

Compared with B31, B32 is lower in “fold change of affinity” value: 0.9 fold for the first, 0 fold for the second.

Compared with B33, B34 is lower in “fold change of affinity” value: 0.4 fold for the first, 0.1 fold for the second.

B35 and B36 are the same in “fold change of affinity” value: 0 fold for the first, 0 fold for the second.

Compared with B37, B38 is higher in “fold change of affinity” value: 0 fold for the first, 0.6 fold for the second.

B39 and B40 are the same in “fold change of affinity” value: 0.3 fold for the first, 0.3 fold for the second.

Compared with B41, B42 is higher in “fold change of affinity” value: 0.6 fold for the first, 1.2 fold for the second.

Going from B43 to B44, the “fold change of affinity” value falls from 0.8 fold to 0.2 fold.

For B45, the “fold change of affinity” value was 1.1 fold.
